Laboratory results: publication PMC12872393 (Life Science Alliance, 2026)
No end group written: not given here. AF488 = AF Dye 488 fluorescent label

Columns and labels:
[1] = biological target: T1, monomeric GATE16 (mGATE16) (UniProt P60520 1-117); experiment: fluorescence polarisation; competition anisotropy: 1.5 μM mGATE16 with 10 nM labeled ATG4B peptide; increasing unlabeled peptide; 20 mM Tris, 150 mM NaCl, pH 7.5; RT; settings: both partners purified
T1 construct: GATE16, LC3/GABARAP-family protein, from pGex-4T-2_GATE-16 after thrombin cleavage; source: E. coli BL21 Tuner DE3, purified as GST-GATE16, GST removed with thrombin, SEC

His6-GATE16 = biological target: T2, His6-GATE16 (UniProt P60520 1-117); experiment: fluorescence polarisation; direct anisotropy: 10 nM labeled ATG4B peptide with increasing His6-GATE16; 20 mM Tris, 150 mM NaCl, pH 7.5; RT; apparent KD; settings: both partners purified
T2 construct: GATE16, LC3/GABARAP-family protein; also called monomeric His6-GATE16; His6-tagged GATE16; source: E. coli BL21 Tuner DE3, purified (Ni-NTA, SEC)
T2 sequence (P60520 whole entry): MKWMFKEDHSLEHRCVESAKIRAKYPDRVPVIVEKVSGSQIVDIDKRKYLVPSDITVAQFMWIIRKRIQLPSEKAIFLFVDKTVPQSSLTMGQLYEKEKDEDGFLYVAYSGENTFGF

T1 sequence (P60520 whole entry): as above

B1: dye-labeled ATG4B LIR peptide (EDEDFEILSL) (peptide)
peptide: AF488-EDEDFEILSL
notes: also called fluorescently labeled ATG4B peptide; labeled ATG4B peptide; source: synthetic peptide (MIT Biopolymers Laboratory, HPLC-purified)
B1: binds [1]; binds (His6-GATE16).
